Assay results as given in the DeepSol protein solubility set.

Assay: soluble on expression in E. coli; label from the status in PepcDB or PDB records

Soluble on expression in E. coli, soluble:
MRMSKMARKDPTIEFCQLGLDTFETKYITMFGMLVSCSFDKPAFISFVFSDFTKNDIVQNYLYDRYLIDYENKLELNEGFKAIMYKNQFETFDSKLRKIFNNGLRDLQNGRDENLSQYGIVCKMNIKVKMYNGKLNAIVRECEPVPHSQISSIASPSQCEHLRLFYQRAFKRIGESAISRYFEEYRRFFPIHRNGSHLA, MRNQFDLELHELEQSFLGLGQLVLETASKALLALASKDKEMAELIINKDHAINQGQSAIELTCARLLALQQPQVSDLRFVISIMSSCSDLERMGDHMAGIAKAVLQLKENQLAPDEEQLHQMGKLSLSMLADLLVAFPLHQASKAISIAQKDEQIDQYYYALSKEIIGLMKDQETSIPNGTQYLYIIGHLERFADYIANICERLVYLETGELVDLN

Soluble on expression in E. coli, not soluble:
MRLVEIGRFGAPYALKGGLRFRGEPVVLHLERVYVEGHGWRAIEDLYRVGEELVVHLAGVTDRTLAEALVGLRVYAEVADLPPLEEGRYYYFALIGLPVYVEGRQVGEVVDILDAGAQDVLIIRGVGERLRDRAERLVPLQAPYVRVEEGGIHVDPIPGLFDLEHHHHHH, MRMRLMLLGGGNALGQALIRLGAEEDIGFLAPRPPQDGWDVASLTQLLDDTRPDALINLAYYFDWFQAETVSAARLTHQERSVERLAELCQHHNITLVQPSSYRVFDGSRATAYSEKDEPVPLGLRGQALWRIEQSVRATCPQHVLVRFGWLLDDSADGVLGRFLSRAKEPGELLLADDRRGNPTPVDDAARVIISIVKQLDCEAPLWGTYHYAGHEATTPLALGQAVLTEARLLHPLAIESPTAQAHAARPDAAEEPQHAVLACKKILHTFGIKPRAWRAGLPSLLDRYYRHV, MRNERAAKLVVIGGGTGLPVLLRGLKQHELDLTAIVTVADDGGSSGRLRDELHIPPPGDVRNVLAALSDVEPLIVELFQHRFQNGNGLSGHSLGNLILAALTSITGDFVKAIREMSKVLNVRGQVLPAANKSVVLHAEMEDGSIVSGESKIPSAGKKIKRVFLTPEDIEPLPETVDAIRRADLIVIGPGSLYTSILPNLLVPKIGQEVCKAKAKKVYICNIMTQAGETPHYTVSDHVEALHAHLGGPFLDAVIINSGAIPEAIRRRYEAERAEPVRDDSSGLSLQVIRDDIVTYEDGVIRHNTAKVAALLLGLLPHR, MRNETLVSIIVPVYNSAQYLRKCIDSILAQSYTEFELLLINDGSEDHSGLICDDYAQSDNRIQVFHQENAGVSAARNLGLEKHTGEHFLFIDSDDYIQERYLEELMKYASCDFVQCSCCSEPVGNDYLFVDGNFEGSDEIKQCLLKYIYPEFTVPFGRLYKSSIQRKNKLFFDTYLYSGEDTLWVSQYLLCVHSLRVSSYIGYIYVHHVGEHLSQKSISYEHLEYTLHKLLISYSDLEKRYDFDLTGVRYSVIIYFFHRYIVYIANRNYTEIRKELEKSCANPLIKGVFYDKKYLLKGKKMKLFNWLVLHDMYSVLALYVKRWKRYL, MRNIMEQYTEKPEILMLTQQSLQSENFKEMLSKNTETKITIIDAKNPSYHELIPDRYFLLVDFSVDTPSDTLVYLKDSNKVLGTIMLNLGYDLDTEELASWPHVKGIFGPLDSMEKVCRGLGAIVKGDNWLSRRLLDQLVNYYKGKESNNVSEP, MRNKADNKKRNFLTHSEIESLLKAANTGPHATRNYCLILLCFIHGFRASEICRLRISDIDLKAKCIYIHRLKKGFSTTHPLLNKEVQALKNWLSIRTSYPHAESEWVFLSRKGNPLSRQQFYHIISTSGGNAGLSLEIHPHMLRYSCGFALANMGIDTRLI, MRNKDLEPHSFELWLNAAKTNLDKYEMALIITATLGLRRGEVMGLRNESIKISHDQINDADVAQISIDMQRNTNELNGGPLKTKSSYRTIWAFGKTVDHLKYAMITADNLRQRNNIQAEKHWLWLNNDGNPLHPTHLNRLMRRVSNRSGVEVYPHLLRHYFATQAIAANKPQIDVMHYLGHKNLQMTADYTRSTKAASLNVFNSIDKFLLEHHHHHH, MRNSTDYSPLYRSFIGFDHLASLIDKASQPGKQSSYPPYNIELLAENQYRITMAVAGFREEDIDIESKDNGLIIVGTKQPPANSTQESEATTRHFLHQGIAERNFERKFQLGEHVKVIGAFMENGLLHVDLEREIPEALKSRKIAINGKSLLNGNS
